Data reported in patent publication US20050209147A1 (Stanford University, published 2005).

Biological target: Rho-kinase (ROCK), endogenous in Swiss 3T3 mouse fibroblasts (mouse)
Test: cell-based or functional assay

Binder	dose at which inhibition of LPA-induced stress fibers becomes significant
RQIKIWFQNRRMKWKKGIVFSKDQFPEVYVPTVFE [P1-RhoA 23-40 fusion domain (Penetratin-1 fused through a glycine to human RhoA amino acids 23-40)]	10 µM
RQIKIWFQNRRMKWKKGPDTDVILMCFSIDSPDSL [P1-RhoA 75-92 fusion domain (Penetratin-1 fused through a glycine to human RhoA amino acids 75-92)]	10 µM
